Assay results published in PMC6297230, “Structural basis of meiotic telomere attachment to the nuclear envelope by MAJIN-TERB2-TERB1” (Nature Communications, 2018).
Where “and” joins values, the source holds several entries; their conditions need not be identical. Equal values may be shown once. Blank lines part the entries; values can stand above or below the molecule they belong to.

B3: TERB2 N-terminal end (amino acids 1–107) (domain or fragment, human, UniProt Q8NHR7 1-107, looked up)
chain: MFQGQRGWFCGSVSQDLRQFWVAEGGTISDPRAADFLFSCDASHPDTLRIYQSLDYIEDNATVFHAYYLSAVANAKIKNSVALGHFILPPACLQKEIRRKIGSFIWE
notes: Forms large aggregates in isolation; source: E. coli BL21 (DE3), co-expressed with TERB1, purified (Ni-NTA, amylose, ion exchange, SEC)
B4: TRF homology domain of TRF1 (amino acids 62–268) (domain or fragment, human, UniProt P54274 62-268, looked up)
chain: EDAGLVAEAEAVAAGWMLDFLCLSLCRAFRDGRSEDFRRTRNSAEAIIHGLSSLTACQLRTIYICQFLTRIAAGKTLDAQFENDERITPLESALMIWGSIEKEHDKLHEEIQNLIKIQAIAVCMENGNFKEAEEVFERIFGDPNSHMPFKSKLLMIISQKDTFHSFFQHFSYNHMMEKIKSYVNYVLSEKSSTFLMKAAAKVVESKR
notes: Dimer by SEC-MALS; also called TRF1_(TRFH); source: E. coli BL21 (DE3), purified (Ni-NTA, amylose, ion exchange, SEC; 10% glycerol, room temperature)
B6: TERB1 TRF1-binding domain (amino acids 561–658) (domain or fragment, human, UniProt Q8NA31 561-658, looked up)
chain: TDPFTLCSDIINKEVVSFLATPSCSEMLTYRCSGCIAVEKSLNSRNFSKLLHSCPYQCDRHKVIVEAEDRYKSELRKSLICNKKILLTPRRRQRLSNE
notes: human TERB1, canonical isoform Q8NA31, amino acids 561-658; The discussion prints 568–658 once for TRFB; also called TERB1_(TRFB); TRFB; source: E. coli BL21 (DE3), co-expressed with TRF1 TRFH and/or TERB2, purified (Ni-NTA, amylose, ion exchange, SEC)

Assays:
[1] = biological target: MAJIN core, truncated (amino acids 1–106) (human); assay: SEC-MALS; purified (co-expressed) samples at > 1 mg/ml on Superdex 200 Increase 10/300 GL in 20 mM Tris pH 8.0, 250 mM KCl, 2 mM DTT
[2] = biological target: MAJIN N-terminal structural core (amino acids 1–112) (human); assay: as above
TERB1 TBM (Homo sapiens) = TERB1 TBM (Homo sapiens) (UniProt Q8NA31); conditions: cited from earlier work
[3] = biological target: GST-TERB1 TBM (Homo sapiens) (UniProt Q8NA31); conditions: cited from earlier work
[4] = biological target: TRF homology domain of TRF1 (amino acids 62–268) (human) (UniProt P54274); assay: SEC-MALS; relative binding affinities estimated from dissociation of TRF1 TRFH–TERB1 complexes upon serial dilution (Supplementary Fig. 13a–d)
TRF1 full length = TRF1 full length (human, UniProt P54274 1-439); assay: EMSA; apparent, Hill fit; EMSA: 20 mM Tris pH 8.0, 250 mM KCl, 1 h at 4 °C, 3% glycerol, 0.5% agarose in 0.5x TBE; 25 nM FAM-DNA for Kd (protein as oligomer), 0.3 uM DNA for display; conditions: protein: recombinant; tags: tag removed (TEV); chain copies: 2; label: 5' 6-FAM; blunt
[5] = biological target: MAJIN N-terminal structural core (amino acids 1–112) (human); assay: SEC-MALS; purified (co-expressed) samples at > 1 mg/ml on Superdex 200 Increase 10/300 GL in 20 mM Tris pH 8.0, 250 mM KCl, 2 mM DTT; remark: listed apart in the source
Target sequence in this assay (Q3KP22 1-112): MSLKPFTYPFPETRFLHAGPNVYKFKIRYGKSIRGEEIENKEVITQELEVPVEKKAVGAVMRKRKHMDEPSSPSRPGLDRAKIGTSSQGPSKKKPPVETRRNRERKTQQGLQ

[6] = biological target: MAJIN core (amino acids 1–112) F73E Y75E (human); assay: as above
[7] = biological target: MAJIN core (amino acids 1–112) K24M K26E R28E K31D R34E R81D (human); assay: as above
[8] = biological target: B6; assay: as above; conditions: both partners purified
[9] = biological target: MAJIN_(Core+BP1)-TERB2–TERB1_(TRFB) complex (1–147, 1–220, 561–658) (human) (UniProt Q8NHR7); assay: SEC-MALS; complex reconstituted by adding TRF1 TRFH to purified MAJIN–TERB2–TERB1(TRFB) (Supplementary Fig. 12c); conditions: scale: TRF1 TRFH chains per 2:2:2 MAJIN–TERB2–TERB1 complex
[10] = biological target: the molecule itself; assay: SEC-MALS; purified (co-expressed) samples at > 1 mg/ml on Superdex 200 Increase 10/300 GL in 20 mM Tris pH 8.0, 250 mM KCl, 2 mM DTT
[11] = biological target: B4; assay: as above; conditions: both partners purified
His6–TRF1_(TRFH) = biological target: T1, His6–TRF1_(TRFH) (human, UniProt P54274 62-268); assay: SEC-MALS; co-purified His6–TRF1 TRFH complexes with MBP–TERB1 TRFB (9 µM) or MBP–TERB1 TBM (130 µM) incubated with 9 µM phosphorylated CDK1-CyclinB in 40 mM Tris pH 7.5, 250 mM KCl, 20 mM MgCl2, 2 mM ATP, 10 mM DTT, 10 min at 30 °C and 50 min at 22 °C; also SDS–PAGE with ProQ-Diamond; conditions: both partners purified
T1 construct: source: E. coli BL21 (DE3), co-purified with MBP–TERB1 fusions
T1 sequence (looked up): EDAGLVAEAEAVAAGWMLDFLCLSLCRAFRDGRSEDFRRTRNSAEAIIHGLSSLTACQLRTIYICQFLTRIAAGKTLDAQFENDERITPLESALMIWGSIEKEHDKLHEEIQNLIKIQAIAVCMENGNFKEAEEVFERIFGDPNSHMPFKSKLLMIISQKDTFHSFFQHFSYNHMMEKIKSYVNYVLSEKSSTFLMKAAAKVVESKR

[12] = biological target: B4; assay: SEC-MALS; relative binding affinities estimated from dissociation of TRF1 TRFH–TERB1 complexes upon serial dilution (Supplementary Fig. 13a–d); conditions: both partners purified
[13] = biological target: MAJIN core, truncated (amino acids 1–106) (human); assay: SEC-MALS; purified (co-expressed) samples at > 1 mg/ml on Superdex 200 Increase 10/300 GL in 20 mM Tris pH 8.0, 250 mM KCl, 2 mM DTT; remark: listed apart in the source
[14] = biological target: T2, full length TERB2 (1–220) (human, UniProt Q8NHR7 1-220); assay: as above; conditions: both partners purified
T2 construct: human TERB2, canonical isoform Q8NHR7, full length, amino acids 1-220; source: E. coli BL21 (DE3), co-expressed with MAJIN and TERB1, purified (Ni-NTA, amylose, ion exchange, SEC)
T2 sequence (looked up): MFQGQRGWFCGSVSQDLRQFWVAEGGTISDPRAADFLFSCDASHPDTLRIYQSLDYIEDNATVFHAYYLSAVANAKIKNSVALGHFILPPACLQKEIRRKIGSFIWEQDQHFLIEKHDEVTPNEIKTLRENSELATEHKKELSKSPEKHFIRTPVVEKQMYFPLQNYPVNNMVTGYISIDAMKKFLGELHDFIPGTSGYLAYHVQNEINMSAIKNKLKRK

[15] = biological target: B3; assay: as above; conditions: both partners purified

Sequence of TRF1 full length (P54274 whole entry, the tested form may be a part): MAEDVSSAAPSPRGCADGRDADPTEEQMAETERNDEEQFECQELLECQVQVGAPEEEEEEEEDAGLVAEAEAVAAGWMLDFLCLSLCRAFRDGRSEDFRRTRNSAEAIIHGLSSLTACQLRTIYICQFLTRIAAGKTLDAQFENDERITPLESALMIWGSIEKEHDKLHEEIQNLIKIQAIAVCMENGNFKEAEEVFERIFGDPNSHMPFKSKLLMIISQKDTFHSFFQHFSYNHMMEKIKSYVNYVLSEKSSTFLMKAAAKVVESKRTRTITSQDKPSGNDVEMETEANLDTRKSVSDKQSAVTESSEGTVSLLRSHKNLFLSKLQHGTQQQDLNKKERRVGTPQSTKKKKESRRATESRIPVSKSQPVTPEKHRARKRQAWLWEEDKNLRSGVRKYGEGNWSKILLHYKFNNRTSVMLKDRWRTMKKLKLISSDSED

Molecule: TRF1 TRFH (from UniProt P54274)
Kd (TERB1 TBM (Homo sapiens)): 5600 nM
Kd [3]: 75 nM

B1: FAM random dsDNA (145 bp) (dsDNA)
DNA 1: TTCCAGGGTTCCATGGAGATAAAGGTCAATAAATTAGAGTTAGAACTAGAAAGTGCCAAACAGAAATTTGGAGAAATCACAGACACCTATCAGAAAGAAATTGAGGACAAAAAGATATCAGAATAATAACCATGGATATCGAATT
DNA 2: AATTCGATATCCATGGTTATTATTCTGATATCTTTTTGTCCTCAATTTCTTTCTGATAGGTGTCTGTGATTTCTCCAAATTTCTGTTTGGCACTTTCTAGTTCTAACTCTAATTTATTGACCTTTATCTCCATGGAACCCTGGAA
Kd (TRF1 full length): 100 nM

Molecule: B3
stoichiometry N [8]: 1 binder chains per target chain (2:1:1 TRF1:TERB1:TERB2)

Molecule: B4
stoichiometry N [9]: 4
stoichiometry N [10]: 2 chains in the oligomer

Molecule: B6
stoichiometry N [11]: 0.5 binder chains per target chain (2:1 TRF1:TERB1) and 0.5 binder chains per target chain (2:1:1 TRF1:TERB1:TERB2)

B7: MBP–TERB1_(TRFB) partially phosphorylated by CDK1-CyclinB (domain or fragment, human, UniProt Q8NA31 561-658, looked up)
chain: TDPFTLCSDIINKEVVSFLATPSCSEMLTYRCSGCIAVEKSLNSRNFSKLLHSCPYQCDRHKVIVEAEDRYKSELRKSLICNKKILLTPRRRQRLSNE
modifications: only partially phosphorylated by CDK1-CyclinB (residue not named for this experiment)
notes: human TERB1, canonical isoform Q8NA31, amino acids 561-658; source: E. coli BL21 (DE3), co-purified with His6–TRF1 TRFH, then incubated with phosphorylated CDK1-CyclinB and ATP
stoichiometry N (His6–TRF1_(TRFH)): 0.5 binder chains per target chain (2:1 TRF1:TERB1)

B8: TERB1 TRF1-binding domain (amino acids 561–658) T648E (domain or fragment, human, UniProt Q8NA31 561-658, looked up)
chain: TDPFTLCSDIINKEVVSFLATPSCSEMLTYRCSGCIAVEKSLNSRNFSKLLHSCPYQCDRHKVIVEAEDRYKSELRKSLICNKKILLEPRRRQRLSNE
notes: human TERB1, canonical isoform Q8NA31, amino acids 561-658, phosphomimetic T648E; it may be an MBP fusion as in the phosphorylation assays; also called TERB1_(TRFB) T648E; source: E. coli BL21 (DE3), purified
fold higher affinity than wild-type TERB1 TBM [12]: ≥ 10 fold

Other lines, results leading:

stoichiometry N (MAJIN chains in the 2:2 complex) [1]: 2
Molecule: MAJIN core, truncated (amino acids 1–106) (domain or fragment)

stoichiometry N (MAJIN chains in the 2:2:2 complex) [2]: 2
stoichiometry N (MAJIN chains in the 2:2 complex) [2]: 2
Molecule: MAJIN N-terminal structural core (amino acids 1–112) (domain or fragment)

fold weaker binding than TERB1 TRFB [4]: > 100 fold
Molecule: TERB1TBM (amino acids 642–658) (from UniProt Q8NA31 642-658) (peptide)

stoichiometry N (binder chains per target chain (2:2)) [5]: 1
stoichiometry N (binder chains per target chain (1:1)) [6]: 1
stoichiometry N (binder chains per target chain (1:1)) [7]: 1
B2: TERB2 C-terminus (amino acids 168–220) (domain or fragment)
chain: PVNNMVTGYISIDAMKKFLGELHDFIPGTSGYLAYHVQNEINMSAIKNKLKRK

stoichiometry N (binder chains per target chain (2:2:2)) [5]: 1
B5: full length TERB2 (1–220) (natural protein)
chain: MFQGQRGWFCGSVSQDLRQFWVAEGGTISDPRAADFLFSCDASHPDTLRIYQSLDYIEDNATVFHAYYLSAVANAKIKNSVALGHFILPPACLQKEIRRKIGSFIWEQDQHFLIEKHDEVTPNEIKTLRENSELATEHKKELSKSPEKHFIRTPVVEKQMYFPLQNYPVNNMVTGYISIDAMKKFLGELHDFIPGTSGYLAYHVQNEINMSAIKNKLKRK

stoichiometry N (binder chains per target chain (2:2)) [13]: 1
B9: TERB2 C-terminus, truncated (amino acids 168–207) (domain or fragment)
chain: PVNNMVTGYISIDAMKKFLGELHDFIPGTSGYLAYHVQNE

stoichiometry N [14]: 1 binder chains per target chain (2:2:2)
stoichiometry N [15]: 1 binder chains per target chain (1:1)
B10: TERB1 TERB2-binding site (amino acids 585–642) (domain or fragment, human, UniProt Q8NA31 585-642, looked up)
chain: SEMLTYRCSGCIAVEKSLNSRNFSKLLHSCPYQCDRHKVIVEAEDRYKSELRKSLICN
notes: human TERB1, canonical isoform Q8NA31, amino acids 585-642; Forms large aggregates in isolation; also called TERB1T2B; T2B; source: E. coli BL21 (DE3), co-expressed with TERB2, purified (Ni-NTA, amylose, ion exchange, SEC)
